From article PMC6241251

Target: human SK4 (small-conductance Ca2+-activated K+ channel), full-length (human) (UniProt O15554)
Experiment: cryo-EM structure

UniProt O15554, sequence (O15554 whole entry): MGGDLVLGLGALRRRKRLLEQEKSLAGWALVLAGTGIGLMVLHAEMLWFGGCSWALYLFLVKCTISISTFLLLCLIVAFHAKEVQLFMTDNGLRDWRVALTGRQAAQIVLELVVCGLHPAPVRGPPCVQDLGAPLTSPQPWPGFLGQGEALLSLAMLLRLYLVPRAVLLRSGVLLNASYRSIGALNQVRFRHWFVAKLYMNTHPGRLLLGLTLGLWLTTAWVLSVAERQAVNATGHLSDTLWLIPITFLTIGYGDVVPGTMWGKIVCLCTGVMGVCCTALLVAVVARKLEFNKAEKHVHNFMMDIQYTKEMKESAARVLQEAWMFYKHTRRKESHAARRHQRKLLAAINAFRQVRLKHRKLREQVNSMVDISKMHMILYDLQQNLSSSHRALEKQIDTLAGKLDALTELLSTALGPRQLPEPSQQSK

With “calmodulin (from UniProt P0DP23 1-149) (natural protein; other documents disagree on this pair)” the stoichiometry N (CaMs per channel tetramer) was 4.
